The results in this text go back to patent US7223734B2, “Plasma protein-binding ligands” (The American National Red Cross, priority 2002, dated 2007).

Where “and” joins values, the source holds several entries; their conditions need not be identical. Identical values can stand only once. Non-standard residues stand in square brackets, D forms with d. No end group written: not given here. Some results are limits rather than exact numbers.

The target of assay [1] is T1, fibrinogen (Homo sapiens, UniProt P02671+P02675+P02679).
T1 construct: from tissue; host or cells: human plasma
T1 sequence (P02671 20-629 limits assumed): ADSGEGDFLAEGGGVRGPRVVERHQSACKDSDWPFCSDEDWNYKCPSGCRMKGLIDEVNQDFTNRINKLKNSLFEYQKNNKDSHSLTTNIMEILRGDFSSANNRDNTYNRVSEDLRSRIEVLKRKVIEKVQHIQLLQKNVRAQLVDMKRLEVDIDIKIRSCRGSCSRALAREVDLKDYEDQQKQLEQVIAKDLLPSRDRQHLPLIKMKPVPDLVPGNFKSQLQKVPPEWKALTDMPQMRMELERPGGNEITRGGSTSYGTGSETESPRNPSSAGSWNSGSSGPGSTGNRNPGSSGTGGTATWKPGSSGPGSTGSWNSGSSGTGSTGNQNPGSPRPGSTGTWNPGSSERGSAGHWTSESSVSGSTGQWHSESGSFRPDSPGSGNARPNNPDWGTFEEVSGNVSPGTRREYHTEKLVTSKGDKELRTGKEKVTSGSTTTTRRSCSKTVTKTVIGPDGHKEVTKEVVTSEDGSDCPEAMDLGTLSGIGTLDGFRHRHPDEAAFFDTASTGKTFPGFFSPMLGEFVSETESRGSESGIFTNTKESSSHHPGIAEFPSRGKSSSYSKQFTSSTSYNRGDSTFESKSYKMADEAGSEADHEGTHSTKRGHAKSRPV
T1 sequence (P02675 31-491): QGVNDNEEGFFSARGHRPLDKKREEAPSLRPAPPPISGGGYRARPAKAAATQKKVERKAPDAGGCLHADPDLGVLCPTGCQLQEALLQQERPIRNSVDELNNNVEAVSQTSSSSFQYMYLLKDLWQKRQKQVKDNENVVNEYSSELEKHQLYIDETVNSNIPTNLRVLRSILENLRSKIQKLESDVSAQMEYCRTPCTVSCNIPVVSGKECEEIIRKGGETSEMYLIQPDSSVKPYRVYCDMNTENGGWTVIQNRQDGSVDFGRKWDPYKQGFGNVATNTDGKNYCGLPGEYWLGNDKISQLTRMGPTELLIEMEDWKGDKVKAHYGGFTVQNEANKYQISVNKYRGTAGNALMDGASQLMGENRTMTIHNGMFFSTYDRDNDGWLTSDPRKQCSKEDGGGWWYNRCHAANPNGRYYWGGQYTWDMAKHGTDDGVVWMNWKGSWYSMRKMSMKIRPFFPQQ
T1 sequence (P02679 27-433 limits assumed): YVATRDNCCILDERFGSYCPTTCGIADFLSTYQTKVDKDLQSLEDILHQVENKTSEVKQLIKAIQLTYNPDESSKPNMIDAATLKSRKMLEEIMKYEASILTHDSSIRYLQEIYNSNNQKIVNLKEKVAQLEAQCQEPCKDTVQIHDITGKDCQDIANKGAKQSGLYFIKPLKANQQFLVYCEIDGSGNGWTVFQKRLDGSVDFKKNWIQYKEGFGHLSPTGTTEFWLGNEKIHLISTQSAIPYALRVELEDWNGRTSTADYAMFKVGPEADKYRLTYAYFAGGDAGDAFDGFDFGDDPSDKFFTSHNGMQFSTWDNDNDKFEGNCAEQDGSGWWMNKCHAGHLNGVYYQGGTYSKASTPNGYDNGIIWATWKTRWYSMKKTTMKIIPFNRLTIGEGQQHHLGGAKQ
Nature of the assay: Purification of fibrinogen from plasma by affinity chromatography on D-ARQFDF resin (Example 2). Format: binding. As to the method:
ToyoPearl AF-Amino 650 M resin beads displaying dried D-ARQFDF (SEQ ID NO: 20) peptide via an epsilon amino caproic acid (EACA) spacer were suspended in 20% methanol for a minimum of 2 hours before equilibration in 0.12–0.15 M NaCl, 0.020 M sodium citrate, pH 6.5–7.5. For 2.0–2.1 ml columns, about […] of resin was obtained. The resin was subsequently packed in an Omni Column of 1.0–1.5 cm diameter and evaluated either on an ÄKTAExplorer System or BIO RAD BioLogic LP. Optical density at 280 nm–320 nm and conductivity was constantly monitored during the evaluations. Flow rates were selected according to column size to achieve linear velocities of 30–60 cm/hour and residence times between 5–8 minutes.
All evaluations were performed at room temperature with cryo-rich plasma that had been 0.8 μm and 0.45 μm filtered. A linear velocity (LV) of […] was maintained throughout the experiments. Fifty milliliters of plasma was applied at 1.5 ml/min (RT=6.7) onto 10 ml column (height 5.7 cm, CF=1.77 cm^2) that had been equilibrated with 0.14 M NaCl, 0.020 M sodium citrate, pH 7.0 (EQ buffer). After the column was washed with EQ buffer to baseline, the fibrinogen was eluted with 0.3 M glycine, 0.5 M NaCl at pH 9.0 (10 CV). The column was regenerated with 2% Sarkosyl, 2.0 M guanidine-HCl, 30% ethanol, followed by a 70% ethanol/2% acetic acid mixture and stored in 20% methanol.

In assay [2] the target is T1, fibrinogen. Put plainly: Preparation of fibrinogen- and Apo-A1-depleted plasma: fibrinogen capture (Example 5). It is filed as binding. The settings on record: nephelometric and clotting analysis. As to the method: (§1) Toyopearl AF Amino 650M resin displaying a peptide consisting essentially of the amino acid sequence D-ARQFDF (SEQ ID NO: 20) was suspended for 2 hours in 20% methanol. After washing with distilled water, the resin was packed into an Omni column (column volume (CV)=10 ml; diameter 1.5 cm; CF 1.77 cm^2) and equilibrated in 0.14 M NaCl, 0.020 M sodium citrate, pH 7.0 (EQ buffer). Fifty milliliters of filtered plasma (0.80 mm, Nalgene CN, Cat. No. 380-0080; 0.45 μm, Corning CA, Cat. No. 431155; 0.20 μm, Nalgene PES, Cat. No. 165-0020) were loaded on the Omni columns at a linear velocity (LV) of 50 cm/H (flow rate (FR)=1.5 ml/min; residence time (RT)=6.7 minutes). The flow-through was collected in column volumes. After pooling fibrinogen-depleted plasma (50 ml), the flow-through was loaded onto a column comprising a resin displaying an Apo-A1 lipoprotein-binding ligand (D-WWLHIN (SEQ ID NO: 33)), as described below. The fibrinogen-binding column was washed with 12 CVs of EQ buffer and the fibrinogen eluted with 10 CVs of 0.3 M glycine, 0.5 M NaCl, pH 9.0. The column was regenerated with 10 CVs of 2% Sarkosyl, pH 8.0, followed by 10 CVs of 2.0 M guanidine (GuHCl). After washing with 5 CVs of distilled water, the column was further cleaned with 6 CVs of 30% ethanol and 6 CVs of 70% ethanol containing 2% acetic acid. […]

Assay [3] concerns the target T2, API (Homo sapiens, UniProt P01009).
T2 construct: from tissue; host or cells: human plasma (whole, fibrinogen-depleted or F1-Apo-depleted)
Nature of the assay: Preparation of fibrinogen- and Apo-A1-depleted plasma: API in flow-through (Example 5). It is filed as binding. The note with it: after chromatography on the named resin. The procedure:
as §1

The test system of assay [4] is Apo-A1 lipoprotein. Put plainly: Preparation of fibrinogen- and Apo-A1-depleted plasma: Apo-A1 in flow-through (Example 5). Format: binding, human. The settings on record: after treatment with the named resin. As to the method: as §1
Assay [5] has as its target T3, Apo-A1 lipoprotein (Homo sapiens, UniProt P02647).
T3 construct: from tissue; host or cells: human plasma (whole or fibrinogen-depleted)
Put plainly: Apo-A1 lipoprotein purification from fibrinogen-depleted plasma on peptide resin column (Example 4). The note with it: for removal / depletion of Apo-A1 lipoprotein in flow-through: fibrinogen-depleted plasma, 14 ml on 2.3 ml resin, SDS-PAGE. It is filed as binding. The procedure: (§2) Apo-A1 lipoprotein purification was accomplished with D-WWLHIN (SEQ ID NO: 33) peptides and several analogs. Indeed, about 100% Apo-A1 lipoprotein depletion from plasma was repeatedly obtained with D-WWLHAN (SEQ ID NO: 56) and D-WWLHIN (SEQ ID NO: […]). Fourteen milliliters of fibrinogen-depleted plasma was loaded onto a 2.3 ml column (CF=0.785 cm^2) at 0.4 ml/min. (LV=30 cm/H; RT=5.8) that had been equilibrated with 0.14 M NaCl, 0.020 M sodium citrate, pH 7.0 (EQ buffer). After the column was washed with EQ buffer to baseline, Apo-A1 lipoprotein was eluted with 2.0 M NaCl, 1% Tween-20, 0.020M sodium citrate, pH 7.0. The column was regenerated with 2.0 M guanidine-HCl, 2% Sarkosyl, and 2% acetic acid and stored in 20% methanol.

The target of assay [6] is T2, API. Nature of the assay: API recovery in Apo-A1 purification run (Example 4). It is filed as binding. The note with it: load 10.6 mg. The procedure:
as §2

A further assay addresses T4, albumin (Homo sapiens, UniProt P02768).
T4 construct: from tissue; host or cells: human plasma (fibrinogen-depleted or F1-Apo-depleted)
Put plainly: Albumin recovery in Apo-A1 purification run (Example 4). The settings on record: load 372 mg. Format: binding. As to the method:
as §2

T3 sequence (P02647 25-267 limits assumed): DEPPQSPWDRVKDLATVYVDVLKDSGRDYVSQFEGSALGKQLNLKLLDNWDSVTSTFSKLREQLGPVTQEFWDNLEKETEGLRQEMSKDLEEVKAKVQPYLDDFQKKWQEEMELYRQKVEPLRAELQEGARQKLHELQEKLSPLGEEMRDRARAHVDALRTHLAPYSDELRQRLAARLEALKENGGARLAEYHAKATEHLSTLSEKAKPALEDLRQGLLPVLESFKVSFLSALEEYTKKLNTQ
T2 sequence (P01009 25-418): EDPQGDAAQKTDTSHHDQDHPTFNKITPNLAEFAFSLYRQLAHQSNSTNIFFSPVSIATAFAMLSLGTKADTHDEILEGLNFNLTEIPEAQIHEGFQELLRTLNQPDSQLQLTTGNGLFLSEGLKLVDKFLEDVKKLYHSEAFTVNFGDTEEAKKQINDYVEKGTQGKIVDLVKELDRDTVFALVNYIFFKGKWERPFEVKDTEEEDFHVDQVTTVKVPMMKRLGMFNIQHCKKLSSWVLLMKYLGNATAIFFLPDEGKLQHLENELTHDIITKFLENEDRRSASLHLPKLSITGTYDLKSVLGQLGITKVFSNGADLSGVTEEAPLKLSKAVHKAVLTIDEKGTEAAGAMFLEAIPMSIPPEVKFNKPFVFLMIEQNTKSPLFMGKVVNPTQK

Take “D-ARQFDF ([dA]RQFDF; not fully specified (residues 2, 3, 4, 5, 6, C-terminus))”: the “Total Fibrinogen” value in the assay with fibrinogen [1] (Elution, plasma load 51 mg) was 54 mg and 46 mg. Moreover, the Fibrinogen with fibrinogen [1] (Flow thru + Post wash, fibrinogen antigen (nephelometric analysis), plasma load 25 ml, 2.04 mg/ml) is <0.15 mg/mL. Also, the “runs with minimal changes in performance, dynamic resin capacity, or purity of fibrinogen eluates” value with fibrinogen [1] (resin reuse) is reported as “over 15 runs”. In the assay with fibrinogen [1] (resin-to-plasma ratios of 1:3.5 to 1:4.5, peptide ligand densities 0.67–0.94 mmol/g resin), the dynamic resin capacity is on record as 6–8 g/L of resin. Besides, in the assay with fibrinogen [2], the fibrinogen captured amounted to 100%. Further, the “API recovered in the flow-through” value in the assay with API [3] is on record as 100%. The “Apo-A1 lipoprotein detected in the flow-through” value in the assay with Apo-A1 lipoprotein [4] is “Ninety”.
Consider “WFLHIN ([dW]FLHIN; not fully specified (residues 2, 3, 4, 5, 6)) [D-WFLHIN]”, for which the “Apo-A1 Elution” value with Apo-A1 lipoprotein [5] (2.0 M NaCl, 1% Tween-20 eluate, load 12.9 mg) is reported as 9.1 mg. In addition, the “removal / depletion of Apo-A1 lipoprotein in flow-through” value is on record as “Complete Apo-A1 lipoprotein depletion” with Apo-A1 lipoprotein [5] and “complete removal” in the assay with Apo-A1 lipoprotein [5] (listed as WFLHIN). The “API Flow Through” value with API [6] worked out at 12.5 mg. The “Albumin Flow Through” value with albumin is 386 mg.
